Laboratory results published in PMC2917047.

Target: PDE6αβ catalytic dimer of rod cGMP phosphodiesterase 6 (bovine) (UniProt P11541)
Assay: SDS-PAGE with Coomassie Blue densitometry of the purified complexes

Sequence of PDE6αβ catalytic dimer of rod cGMP phosphodiesterase 6 (bovine) (P11541 whole entry, chain 1 of 2): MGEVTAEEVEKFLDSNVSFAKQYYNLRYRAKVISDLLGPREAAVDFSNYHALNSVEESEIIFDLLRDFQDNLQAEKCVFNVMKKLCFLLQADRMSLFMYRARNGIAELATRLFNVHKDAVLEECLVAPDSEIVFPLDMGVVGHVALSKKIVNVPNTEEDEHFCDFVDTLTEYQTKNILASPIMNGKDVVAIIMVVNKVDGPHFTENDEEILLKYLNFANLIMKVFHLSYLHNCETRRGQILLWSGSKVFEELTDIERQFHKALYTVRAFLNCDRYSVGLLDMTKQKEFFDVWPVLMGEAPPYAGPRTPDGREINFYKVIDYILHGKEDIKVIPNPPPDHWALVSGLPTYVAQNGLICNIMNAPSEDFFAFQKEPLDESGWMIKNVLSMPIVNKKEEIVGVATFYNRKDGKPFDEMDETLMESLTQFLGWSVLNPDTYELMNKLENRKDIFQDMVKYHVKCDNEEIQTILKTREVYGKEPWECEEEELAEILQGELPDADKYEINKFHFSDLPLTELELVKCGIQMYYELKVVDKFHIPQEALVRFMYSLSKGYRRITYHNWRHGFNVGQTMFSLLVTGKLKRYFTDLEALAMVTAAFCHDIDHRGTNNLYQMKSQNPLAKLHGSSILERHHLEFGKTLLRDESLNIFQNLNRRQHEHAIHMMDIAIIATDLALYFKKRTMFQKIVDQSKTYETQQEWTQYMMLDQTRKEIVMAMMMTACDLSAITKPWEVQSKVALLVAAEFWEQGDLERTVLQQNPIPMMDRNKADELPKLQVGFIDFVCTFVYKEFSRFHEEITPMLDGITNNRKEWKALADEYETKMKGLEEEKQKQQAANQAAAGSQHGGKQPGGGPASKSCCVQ
Sequence of PDE6αβ catalytic dimer of rod cGMP phosphodiesterase 6 (bovine) (P23439 whole entry, chain 2 of 2, further chain): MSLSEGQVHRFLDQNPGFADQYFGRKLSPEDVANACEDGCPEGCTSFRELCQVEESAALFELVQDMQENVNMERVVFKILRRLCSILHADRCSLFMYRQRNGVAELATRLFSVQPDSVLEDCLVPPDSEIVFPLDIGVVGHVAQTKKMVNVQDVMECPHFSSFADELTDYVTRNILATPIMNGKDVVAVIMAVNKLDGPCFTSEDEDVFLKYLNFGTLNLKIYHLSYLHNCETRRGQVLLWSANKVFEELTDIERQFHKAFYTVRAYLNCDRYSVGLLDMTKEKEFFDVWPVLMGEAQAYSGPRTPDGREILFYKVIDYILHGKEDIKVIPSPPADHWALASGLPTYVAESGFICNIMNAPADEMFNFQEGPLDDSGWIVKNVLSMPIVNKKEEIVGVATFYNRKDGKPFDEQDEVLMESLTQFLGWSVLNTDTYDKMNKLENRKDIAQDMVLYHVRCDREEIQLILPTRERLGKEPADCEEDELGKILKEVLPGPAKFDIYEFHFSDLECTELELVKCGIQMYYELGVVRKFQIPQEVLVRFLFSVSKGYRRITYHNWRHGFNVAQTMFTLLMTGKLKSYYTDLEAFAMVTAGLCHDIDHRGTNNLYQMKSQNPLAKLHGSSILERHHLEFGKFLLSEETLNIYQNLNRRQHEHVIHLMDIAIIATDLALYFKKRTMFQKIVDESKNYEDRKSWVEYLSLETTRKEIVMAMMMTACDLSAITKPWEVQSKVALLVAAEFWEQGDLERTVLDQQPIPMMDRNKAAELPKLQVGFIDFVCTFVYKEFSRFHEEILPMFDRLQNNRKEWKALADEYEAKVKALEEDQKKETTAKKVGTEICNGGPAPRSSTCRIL

stoichiometry N: 2
B1: PDE6γ regulatory (inhibitory) subunit of rod cGMP phosphodiesterase 6 (natural protein)
chain: MNLEPPKAEIRSATRVMGGPVTPRKGPPKFKQRQTRQFKSKPPKKGVQGFGDDIPGMEGLGTDITVICPWEAFNHLELHELAQYGII
